The record followed here is patent publication US7498429B2, “AHAS small subunit promoter” (priority 1998, dated 2009).

Holding throughout (assay type): biochemical
Data set [1] addresses T1, Arabidopsis AHAS large subunit (wild type) (Arabidopsis thaliana, UniProt P17597).
T1 construct: GST (glutathione transferase) (N, cleaved yes); made in house; host or cells: E. coli DH5alpha
T1 sequence (P17597 56-670): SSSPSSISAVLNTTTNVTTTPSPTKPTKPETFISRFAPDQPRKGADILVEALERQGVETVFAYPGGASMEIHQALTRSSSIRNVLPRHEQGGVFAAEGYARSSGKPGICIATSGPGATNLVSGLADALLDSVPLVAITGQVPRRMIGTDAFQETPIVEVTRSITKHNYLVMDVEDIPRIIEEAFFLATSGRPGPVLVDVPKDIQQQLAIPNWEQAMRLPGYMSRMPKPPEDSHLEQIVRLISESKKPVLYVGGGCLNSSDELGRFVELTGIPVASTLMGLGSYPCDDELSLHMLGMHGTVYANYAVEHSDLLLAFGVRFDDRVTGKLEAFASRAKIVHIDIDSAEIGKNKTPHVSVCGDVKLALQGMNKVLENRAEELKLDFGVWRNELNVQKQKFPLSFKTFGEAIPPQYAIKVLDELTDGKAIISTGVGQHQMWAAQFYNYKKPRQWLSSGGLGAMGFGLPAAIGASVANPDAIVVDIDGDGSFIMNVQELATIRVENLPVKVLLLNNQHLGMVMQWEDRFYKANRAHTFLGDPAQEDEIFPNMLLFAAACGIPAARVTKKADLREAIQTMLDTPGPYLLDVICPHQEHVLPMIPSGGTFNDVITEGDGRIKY
Kind of data set: AHAS assay of purified wild type large subunit with added substances. Here is the method:
(§1) AHAS assays. AHAS assays were performed with slight modification as described by Singh et al. {Singh et al., 1988}. AHAS activity was assayed in 1× AHAS assay buffer (50 mM HEPES pH 7.0, 100 mM pyruvate, 10 mM MgCl2, 1 mM TPP, and 50 μM FAD). A final concentration of 1× assay buffer was obtained either by dilution of enzyme extracted in 2× assay buffer or addition of enzyme to make a final concentration 1×AHAS assay buffer. All assays containing imazethapyr and associated controls contained a final concentration of 5% DMSO due to addition of imazethapyr to assay mixtures as a 50% DMSO solution. Assays were performed in a final volume of 250 μL at 37° C. in microtiter plates.
Effects of Dithiothreitol. The effect of dithiothreitol (DTT) in Phosphate Buffered Saline (MTPBS) on AHAS large subunit enzyme activity was measured. Experiments were carried out with or without 3 mM DTT in the purified protein solution of large subunit. The assays were conducted as above. […] Moreover, in the absence of DTT, large subunit activity degraded over the 4 day period (FIG. 6).
Effects of Bovine Serum Albumin. To determine whether the enhancement of the large subunit was specific to the small subunit, another nonspecific control which tested the effects of bovine serum albumin was run. To a fixed amount of large subunit an increasing amount of a 0.25 mg/mil BSA solution was added.
(§2) The following experiments used the small subunit and large subunit proteins purified as described in Example 2 above. The plasmid F1 containing the AHAS small subunit gene from Arabidopsis was expressed in E. coli and partially purified. The protein concentration of the sample was determined and aliquots of increasing concentration were added to a constant amount of purified Arabidopsis large subunit.

In data set [2] the target is T2, herbicide-resistant mutant (Met124 His) large subunit Arabidopsis AHAS protein (Arabidopsis thaliana, UniProt P17597, M124H).
T2 construct: GST (glutathione transferase) (N, cleaved yes); made in house; host or cells: E. coli DH5alpha
The data set is described as follows: AHAS assay of herbicide-resistant mutant large subunit with added small subunit. Particulars: mutant with methionine at position 124 substituted by histidine (FIG. 9). Here is the method: as §1, §2
In another experiment, a herbicide-resistant mutant of the large subunit enzyme (substitution mutation at position 124, methionine substituted by histidine) was used.

Data set [3] addresses T3, Arabidopsis AHAS large subunit (Arabidopsis thaliana, UniProt P17597).
T3 construct: GST (glutathione transferase) (N, cleaved yes); made in house; host or cells: E. coli DH5alpha
T3 sequence (P17597 56-670): T1 sequence (P17597 56-670)
The data set is described as follows: Stability of AHAS large subunit activity on storage in MTPBS with or without DTT. Here is the method: The cell pellet from 1 liter of cell culture was resuspended in 10 ml of MTPBS (150 mM NaCl, 16 mM Na2HPO4, 4 mM NaH2PO4), pH 7.3 (Smith and Johnson Gene 67: 31-40, […]) and 100 μg/ml of lysozyme was added. The suspension was adjusted to 5 mM dithiothreitol. Triton X-100 was added to a final concentration of 1% by addition of a 20% Triton X-100 in MTPBS solution. The cells were shaken gently at 30° C. for 15 minutes and were then cooled to 4° C. on ice and sonicated for 8-10 seconds using a microtip probe, duty cycle 70%, output control at maximum for the microtip pulser. The sonicate was centrifuged two times in a J20 rotor, 17,000 rpm, 4° C., 10 minutes, to remove insoluble material. Lysate was added to 150 mg (dry weight) of glutathione agarose (equilibrated and hydrated in MTPBS) and inverted for 30 minutes at 4° C. Agarose was settled by centrifugation at 500 rpm for 5 minutes and was washed with ice cold MTPBS by repeated centrifugation cycles until the A280 of the wash matched that of MTPBS. Agarose was transferred to an appropriate column for elution. Fusion proteins were eluted with 50 mM Tris-HCl, 5 mM reduced glutathione into 1 ml fractions. […]
Effects of Dithiothreitol. The effect of dithiothreitol (DTT) in Phosphate Buffered Saline (MTPBS) on AHAS large subunit enzyme activity was measured. […]

T2 sequence (P17597 56-670 M124H): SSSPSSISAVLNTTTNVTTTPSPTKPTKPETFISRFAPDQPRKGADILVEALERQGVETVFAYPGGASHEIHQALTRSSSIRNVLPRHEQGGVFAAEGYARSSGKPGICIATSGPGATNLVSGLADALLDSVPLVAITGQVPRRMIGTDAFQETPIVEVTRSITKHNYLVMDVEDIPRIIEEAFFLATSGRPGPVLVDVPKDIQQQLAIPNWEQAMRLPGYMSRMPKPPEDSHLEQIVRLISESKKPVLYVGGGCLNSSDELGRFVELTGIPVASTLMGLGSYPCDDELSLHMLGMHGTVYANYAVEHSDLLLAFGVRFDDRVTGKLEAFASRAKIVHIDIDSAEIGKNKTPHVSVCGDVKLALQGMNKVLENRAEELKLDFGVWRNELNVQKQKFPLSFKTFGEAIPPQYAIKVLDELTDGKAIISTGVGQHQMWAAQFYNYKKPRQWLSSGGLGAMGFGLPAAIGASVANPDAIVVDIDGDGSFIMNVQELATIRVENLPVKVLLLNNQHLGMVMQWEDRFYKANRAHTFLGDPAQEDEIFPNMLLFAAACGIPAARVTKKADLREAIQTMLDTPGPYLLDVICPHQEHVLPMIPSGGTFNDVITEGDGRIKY
T2 sequence (Q93YZ7 233-491 P488L, further chain): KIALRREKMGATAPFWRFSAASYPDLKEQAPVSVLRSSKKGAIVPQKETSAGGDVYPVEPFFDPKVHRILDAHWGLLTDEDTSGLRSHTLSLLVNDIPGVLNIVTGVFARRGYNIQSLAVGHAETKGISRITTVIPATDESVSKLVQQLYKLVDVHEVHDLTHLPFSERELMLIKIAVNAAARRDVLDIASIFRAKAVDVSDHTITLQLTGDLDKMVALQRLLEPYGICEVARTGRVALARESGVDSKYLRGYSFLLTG

For `O[C@H](CS)[C@H](O)CS` (racemic) [DTT, dithiothreitol], in data set [1] (3 mM DTT in MTPBS versus no DTT (FIG. 5 vs FIG. 6)), the “effect on catalytic activity of the AHAS large subunit” value is “enhanced dramatically”. The “stabilization and activation of the enzyme compared with other sulfhydryl reductants” value in data set [1] (versus reduced glutathione and β-mercaptoethanol) is “better than reduced glutathione and β-mercaptoethanol”.

Take “Arabidopsis small subunit protein: Arabidopsis AHAS small subunit expressed from plasmid F1 in E. coli and partially purified”: in data set [1] (increasing small subunit (from plasmid F1) added to constant wild type large subunit (FIG. 8)), the “effect on enzymatic activity of the catalytic large subunit” value is “enhances the level of enzymatic activity”. Further, the “effect on enzymatic activity of herbicide-resistant form of the large subunit” value in data set [2] is “also enhanced”.

B1: Arabidopsis large subunit: purified wild type Arabidopsis AHAS large subunit protein expressed in E. coli (pAC774) (protein)
chain: SSISAVLNTTTNVTTTPSPTKPTKPETFISRFAPDQPRKGADILVEALERQGVETVFAYPGGASMEIHQALTRSSSIRNVLPRHEQGGVFAAEGYARSSGKPGICIATSGPGATNLVSGLADALLDSVPLVAITGQVPRRMIGTDAFQETPIVEVTRSITKHNYLVMDVEDIPRIIEEAFFLATSGRPGPVLVDVPKDIQQQLAIPNWEQAMRLPGYMSRMPKPPEDSHLEQIVRLISESKKPVLYVGGGCLNSSDELGRFVELTGIPVASTLMGLGSYPCDDELSLHMLGMHGTVYANYAVEHSDLLLAFGVRFDDRVTGKLEAFASRAKIVHIDIDSAEIGKNKTPHVSVCGDVKLALQGMNKVLENRAEELKLDFGVWRNELNVQKQKFPLSFKTFGEAIPPQYAIKVLDELTDGKAIISTGVGQHQMWAAQFYNYKKPRQWLSSGGLGAMGFGLPAAIGASVANPDAIVVDIDGDGSFIMNVQELATIRVENLPVKVLLLNNQHLGMVMQWEDRFYKANRAHTFLGDPAQEDEIFPNMLLFAAACGIPAARVTKKADLREAIQTMLDTPGPYLLDVICPHQEHVLPMIPSGGTFNDVITEGDGRIKY
Regarding B1, in data set [3] (absence of DTT, 4 day period (FIG. 6)), the “stability of large subunit activity” value is “degraded”. Besides, in data set [3] (in the presence of 3 mM DTT, 1 month, stored at 4° C.), the “stability of large subunit” value is reported as “very stable”.
